{"source": "patent US20210261650A1", "about": "(published 2021)", "binders": {"B1": {"name": "SARS-CoV-2 S310 mAb (antibody, V domains shown)", "VH": "QVQLVQSGAELKKPGSSVKVSCKASGGTFNSYSFNWVRQAPGQGLEWLGGIIPVLGTSNYAQKFQGRVAVTADEFTTTAYMELSSLRSEDTAVYYCATRTYDSSGYRPYYYGLDVWGQGTPVTVSS", "VL": "QSALTQPASVSGSPGQSITISCTGTSSDVGSYNLVSWYQQRPGKAPELMIYEVTKRPSGLSNRFSGSKSGNTASLTISGLQAEDEADYYCCSYAGSDTVIFGGGTKVTVL"}}, "biological_target": "SARS-CoV-2 Spike (S) protein on pseudotyped virus or live SARS-CoV-2 (SARS-CoV-2 (BetaCoV/Wuhan-Hu-1/2019 for …, UniProt P0DTC2 14-1273))", "assay": "cell-based or functional assay"}
{"binder": "B1", "values": [{"measurement": "Percent neutralization of infection, dilution 2", "result": -4, "unit": "%"}, {"measurement": "Percent neutralization of infection, dilution 6", "result": -15, "unit": "%"}, {"measurement": "Percent neutralization of infection, dilution 18", "result": -15, "unit": "%"}, {"measurement": "Percent neutralization of infection, dilution 54", "result": -6, "unit": "%"}]}
